The values that follow come from PMC11672753.

For the test, the target named is SARS-CoV-2 6P-mut7 spike protein (SARS-CoV-2) (UniProt P0DTC2). Briefly: cryo-EM structure.

COVA2-15 Fab returned a stoichiometry N (Fab per spike trimer) of 3.
